Measured values published in article PMC11655674.

molecular target: T1, 6xHis-CerM (Cereibacter sphaeroides WS8N) (UniProt Q3J1N9); assay: EMSA; details: 10 mM Tris pH 7.5, 1 mM EDTA, 0.1 M KCl, 0.1 mM DTT, 5% glycerol, 0.10 mg/mL BSA, 20 min room temperature; 50 ng DNA, 50-200 ng CerM; 4% native gel in TAE pH 7.
T1 sequence: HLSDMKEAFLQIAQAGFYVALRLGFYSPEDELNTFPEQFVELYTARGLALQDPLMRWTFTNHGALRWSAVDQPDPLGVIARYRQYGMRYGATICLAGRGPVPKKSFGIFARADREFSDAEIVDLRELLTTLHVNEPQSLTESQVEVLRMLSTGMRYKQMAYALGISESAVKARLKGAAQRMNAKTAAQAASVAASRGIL

Sequence	binding
CAGCTTGTATGAATGGACATATCCAAAAAGACAGGTTTGTTTCAAGACAAGTTTTTCTGGATGGAATTGGACGTCGGGCGGGGTTTTGGCACACAATATGCTTGTTATCCGGGCAGGGACAGCTGGAAGATTTACGGAGACATTTCATGAAACATCCCGTCGACGCCCAC (double strand) [14710 fragment B (170 bp)]	binds
GCGAATTCCGAGAGGGTTCCACGCTTCATCTTCTCATTTCGCTGGGCAGCCGATTGCGGCGCGAGGAGACCGTGCTGCCGTCCCATTCTCAAGTTGCGCAAAAGGTAAGGCGCTGGAAGGCCCGTCTTTTGAGCATCTGGTCAAAAAAATAAGTTATTACATGGGCTTGATGGGTGATCGGCTCAATCCGCGGACAAACCCTGAGGTTGAGGTGAGAGAGACCCGACTCGCGCCCGTTACCGAAAATGTGCAGATGGGAATTCGC (double strand) [15394 regulatory region (249 bp)]	binds more weakly
GCGAATTCAAGGTCACGATGATCCAGAAATATCGGCAACTTTAGATTGTATTCAGCTTCGCCTATGCGAGAGTAACTCATGATTAACCATTGGGCATCATTGTAGTTAATACCTAGGGTGGCGATGCGGAGCGCGAGTGATGAGAATACTGCTGGTGGAGGATGATCCGACCACGTCCCGCAGCATCGAATTGATGCTGACTCATGCGAACCTGAACGTCTATTGCACCGATCTCGGCGAGGACGGGATCGATCTGGCCAAGCTCTACGATTACGATCTCATCCTGCTGAGCTCGC (double strand) [ctrA control region (281 bp)]	no binding
CAAAAAGACAGGTTTGTTTCAAGACAAGTTTTTCTGGATGGAATTGGACGTCGGGCGGGGTTTTGGCACACAATATGCTTGTTATCCGGGCAGGGACAGCTGGAAGATTTACGGAGACATTTCATGAAACATCCCGTCGACGCCCAC (double strand) [14710 fragment F (147 bp)]	no binding
CCCGAATATTCGCGACTTGCAAAGTTTCGGCGGCGAATTCGCTGCAAATTGCATTGCAGAATGCAAAAGACCTCAGAGGCGAGTGACGTGTCTCCCGTGCTCCCGAGGGATGATCCACAGCGGCGGACGCCGAACGAACCCAGCTTGTATGAATGGACATATCCAAAAAGACAGGTTTGTTT (double strand) [14710 fragment I (182 bp)]	binds
CCCGAATATTCGCGACTTGCAAAGTTTCGGCGGCGAATTCGCTGCAAATTGCATTGCAGAATGCAAAAGACCTCAGAGGCGAGTGACGTGTCTCCCGTGCTCCCGAGGGATGATCCACAGCGGCGGACGCCGAACGAACCCAGCTTGTATGAATGGACATATCCAAAAAGACAGGTTTGTTTCAAGACAAG (double strand) [14710 fragment D (191 bp)]	binds
GACATATCCAAAAAGACAGGTTTGTTTCAAGACAAGTTTTTCTGGATGGAATTGGACGTCGGGCGGGGTTTTGGCACACAATATGCTTGTTATCCGGGCAGGGACAGCTGGAAGATTTACGGAGACATTTCATGAAACATCCCGTCGACGCCCAC (double strand) [14710 fragment H (155 bp)]	binds
CCCGAATATTCGCGACTTGCAAAGTTTCGGCGGCGAATTCGCTGCAAATTGCATTGCAGAATGCAAAAGACCTCAGAGGCGAGTGACGTGTCTCCCGTGCTCCCGAGGGATGATCCACAGCGGCGGACGCCGAACGAACCCAGCTTGTATGAATGGACATATC (double strand) [14710 fragment G (163 bp)]	no binding
GTGGGCGTCGACGGGATGTTTCATGAAATGTCTCCGTAAATCTTCCAGCTGTCCCTGCCCGGATAACAAGCATATTGTGTGCCAAAACCCCGCCCGACGTCCAATTCCATCCAGAAAAACTTGTCTTGA (double strand) [14710 fragment C (129 bp)]	no binding
